Test results published in EP4806905A1, “PEPTIDE, PEPTIDE COMPLEX, PHARMACEUTICAL COMPOSITION, COMPOSITION FOR CELL CULTURE, AND COMPOSITION FOR MEDICAL USE, DIAGNOSTIC USE, OR RESEARCH USE” (PeptiDream Inc., priority 2023, dated 2025).
Numbered stars: 1 amine (or outer) side, 2 acyl side, 3 side chain; on linkers, the order of the positions; unused ones are H or OH. Square brackets hold non-standard residues; d marks the D form. Ends that are not written are not given here. X1 = (S)‑3‑(2-carboxy-2-(methylamino)ethyl)benzoic acid, CN([C@@H](Cc1cccc(C(=O)[*:3])c1)C(=O)[*:2])[*:1]; Trp(7-aza) = N[C@@H](Cc1c[nH]c2ncccc12)C(=O)O; Ala(4-THP) = N[C@@H](CC1CCOCC1)C(=O)O; NMe4Pal = CN[C@@H](Cc1ccncc1)C(=O)O; NMeF = CN[C@@H](Cc1ccccc1)C(=O)O; Tic = O=C(O)[C@@H]1Cc2ccccc2CN1; Cit = NC(=O)NCCC[C@H](N)C(=O)O; NMeV = CN[C@H](C(=O)O)C(C)C

Tests used:
[1] = target: T1, Frizzled-2 (FZD2) (Mus musculus, UniProt Q9JIP6); experiment: Evaluation of binding activity to Frizzled using ELISA (Frizzled-2); details: peptide complex (linker structure number 9 added to the peptide) diluted to 10 nM; absorbance at 450 nm minus wells with no added peptide complex
T1 construct: purchased R&D systems 1307-FZ
Method: (§1) In order to evaluate the binding activity of the synthesized peptide complexes (peptide complexes having the linker structure number 9 added to peptide sequence numbers 1 to 78) to Frizzled, a binding activity evaluation using the ELISA method was conducted using the steps described below.
(§2) Biotin-labeled polyclonal anti-human IgG (eBioscience; 13-4998) was added to a streptavidin-coated 96-well plate (Thermo; 436014) in an amount of 200 µg per well, and left to stand for 30 minutes.
(§3) Following washing three times with PBS-T, 3 pmol of Fc-tagged Frizzled-2 (R&D systems; 1307-FZ), Frizzled-7 (R&D systems; 6178-FZ), or Frizzled-8 (R&D systems; 6129-FZ) was added per well and left to stand for 30 minutes to immobilize each Frizzled on the plate.
(§4) Following washing three times with PBS-T, the peptide complex diluted to 10 nM was added to Frizzled-2 and Frizzled-7, the peptide complex diluted to 500 nM was added to Frizzled-8, and the plate was left to stand for one hour.
(§5) Following washing three times with PBS-T, Anti-HA-tag mAb-HRP-Direct T (MBL; M180-7) that had been diluted 5000-fold with PBS-T was added and left to stand for 30 minutes.
(§6) Following washing three times with PBS-T, SureBlue TMB I-Component Microwell Peroxidase Substrate (SeraCare; 5120-0077) was added and left to stand for 10 minutes, and the reaction was then halted by adding an equal volume of TMB Stop Solution (SeraCare; 5150-0021).
(§7) Using an Infinite M Nano* (TECAN), the absorbance was measured at 450 nm. The binding signal for each peptide complex was calculated by subtracting the absorbance in those wells containing no added peptide complex from the absorbance in those wells containing the added peptide.

[2] = target: T2, Frizzled-7 (FZD7) (Homo sapiens, UniProt O75084); experiment: Evaluation of binding activity to Frizzled using ELISA (Frizzled-7); details: peptide complex (linker structure number 9 added to the peptide) diluted to 10 nM; absorbance at 450 nm minus wells with no added peptide complex
T2 construct: purchased R&D systems 6178-FZ
Method: as §1, §2, §3, §4, §5, §6, §7

[3] = target: T3, Frizzled-8 (FZD8) (Homo sapiens, UniProt Q9H461); experiment: Evaluation of binding activity to Frizzled using ELISA (Frizzled-8); details: peptide complex (linker structure number 9 added to the peptide) diluted to 500 nM; absorbance at 450 nm minus wells with no added peptide complex
T3 construct: purchased R&D systems 6129-FZ
T3 sequence (Q9H461 28-158 limits assumed): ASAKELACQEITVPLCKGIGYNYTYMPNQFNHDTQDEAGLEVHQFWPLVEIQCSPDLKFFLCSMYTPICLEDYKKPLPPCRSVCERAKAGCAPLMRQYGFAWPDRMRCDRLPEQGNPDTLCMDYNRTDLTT
Method: as §1, §2, §3, §4, §5, §6, §7

[4] = system: TCF/LEF Reporter-HEK 293 cells; experiment: Evaluation of Wnt signal activation capability, TCF/LEF reporter assay; format: cell-based; details: dimer structure numbers 1 to 43; classes 2-A to 2-E; tested at 0.1/1/10/100/1,000 nM depending on the dimer
Method: In order to evaluate the Wnt signal activation capability of each of the synthesized peptide complexes (dime structure numbers 1 to 67), transcriptional activity was evaluated using a TCF/LEF reporter.
TCF/LEF Reporter-HEK 293 cells (BPS Bioscience) were cultured in EMEM (Fuji FILM) containing 10% FBS (Thermo Fisher Scientific), 50 µg/mL Gentamicin (Nacalai Tesque), and 400 µg/mL Geneticin (Thermo Fisher Scientific).
The cells were detached using TrypLE (Thermo Fisher Scientific) and then suspended in EMEM containing 10% FBS, 50 µg/mL Gentamicin, and 10 mM LiCl (Sigma).
The cells were seeded into a white 96-well plate (Thermo Fisher Scientific) for cell adhesion and luminescence detection at a rate of 35,000 cells per well, and were then cultured overnight.
Subsequently, Recombinant Human Wnt-3a Protein (R&D systems) or a peptide complex was added in the presence of 1 nM Recombinant Human R-spondin 1 (R&D systems), and stimulation was conducted for 5 hours and 30 minutes in a CO2 incubator at 37°C.
The ONE-Glo Luciferase Assay System (Peomega) was added and shaken for 4 minutes, and the resulting luminescent signals were detected using a SpectraMax Paradigm multimode microplate reader (Molecular Devices).
The thus obtained signals were analyzed using a GraphPad Prism, and the percentage activity was calculated with the maximum value of the signal value induced by Wnt3a deemed to be 100% and the signal value with no stimulus deemed to be 0%. Evaluations were conducted with the Wnt concentration within a range from […] to determine the 100% value.
For each dimer structure number, tests were conducted using the peptide complex addition concentrations described below. • a) For dimer structure number 1, 1 nM, 10 nM, 100 nM, and 1,000 nM • b) For dimer structure numbers 2 to 4, 1 nM, 10 nM, and 100 nM • c) For dimer structure numbers 5 to 14, 0.1 nM, 1 nM, 10 nM, and 100 nM • d) For dimer structure numbers 15 to 43, 0.1 nM, 1 nM, and 10 nM • e) For dimer strength numbers 44 to 56, six points starting at 30 nM and then reducing by a common ratio of 1/4 (0.03 nM, 0.12 nM, 0.47 nM, 1.9 nM, 7.5 nM and 30 nM) • f) For dimer strength numbers 57 to 67, six points starting at 30 nM and then reducing by a common ratio of 1/5 (0.0096, 0.048, 0.24, 1.2, 6.0, and 30 nM)

| ELISA signal Frizzled-2 (FZD2) [1] | ELISA signal Frizzled-7 (FZD7) [2] | ELISA signal Frizzled-8 (FZD8) [3] | Substance | TCF/LEF Reporter Assay Result [4] |
| --- | --- | --- | --- | --- |
| 0.3 | 0.3 | 0.0 | Dimer structure number 46: dimer of peptide SEQ ID NO: 35 and peptide SEQ ID NO: 79 via linker structure number 8 (chain 1 [dF]S[Ala(4-THP)]IRY[NMeF]VT[NMeF]I[NMeV]GCG; chain 2 FRWDVR[NMeF]SNWN[Tic]NCG; cysteine pairing not given here; also: dimer via linker structure number 8, attachment not given here) | 2-C (peptide complexes that exhibited 50% or more activity when 10 nM of the peptide complex was added) |
| 1.7 | 1.7 | 1.5 | Dimer structure number 66: dimer of peptide SEQ ID NO: 76 and peptide SEQ ID NO: 163 via linker structure number 3 (chain 1 [dF]S[Cit]IRY[NMeF]VT[NMe4Pal]I[NMeV][dS]CG; chain 2 FR[Trp(7-aza)]DVR[X1]SE[Trp(7-aza)]N[Tic]DCG; not fully specified; cysteine pairing not given here; also: dimer via linker structure number 3, attachment not given here) | 2-B (peptide complexes that exhibited 50% or more activity when 1 nM of the peptide complex was added) |
| 0.0 | 0.0 | 0.4 | Peptide sequence number 99: peptide of formula B3, amino acid residues shown in Table 2 (FRWDVR[NMeF]SN[Trp(7-aza)]N[Tic]NCG) | 2-C (peptide complexes that exhibited 50% or more activity when 10 nM of the peptide complex was added) |
| 1.5 | 1.4 | 0.7 | df-S-D-I-R-Y-MeF-V-T-MeF-I-MeV-ds-C-G ([dF]SDIRY[NMeF]VT[NMeF]I[NMeV][dS]CG) [Peptide sequence number 66] | 2-C (peptide complexes that exhibited 50% or more activity when 10 nM of the peptide complex was added) |
